Measurements from the DeepSol protein solubility set.

assay: soluble on expression in E. coli; label from the status in PepcDB or PDB records

| Sequence | soluble on expression in E. coli |
| --- | --- |
| MGSDKIHHHHHHDNLQAPGSIKDEEKLRSWLAGYEAEAIKVLREVALSGWRYFNDASPSLKLALDEAENVLTMFVRSTSMQAKQFDMASVTDEKVMRQLGYVSFEGMSALAPSRFADYSQAQAALNRDSKDSTICDKDVPPPCALQKIDMDSIFRNEKDASRLQHLWVSYVTAIAKSKPSYNNIITISNEGAKLNGFANGGAMWRSAFDMSSKVHKAEFDLNKQIDKIYSTIQPFYQLLHAYMRRQLAGIYSNPVGLSKDGPIPAHLFGSLDGGDWSAHYEQTKPFEEESETPEAMLSAFNTQNYTTKKMFVTAYRYFKSAGFPHLPKSYWTSSIFARVWSKDMICHPAAALDMRAPNDFRVKACAQLGEPDFEQAHSLLVQTYYQYLYKDQSLLFREQASPVITDAIANAFAHLSTNPHYLYSQKLVPSEHLDIKDSVIINKLYKESLESFTKLPFTIAADNWRYELFDGTVPKNKLNDRWWEIRNKYEGVRSPQPYNTSNLDALIHNSVSQVHSPATRTLISYVLKFQILKALCQRELFWLSEGCILSEDTTEKLRETMKLGSSITWLKALEMISGKGELDAQPLLEYYEPLINWLRNTNEIDQVVVGWDGEGTP | not soluble |
| MSIWKEAKDASGRIYYYNTLTKKSTWEKPKELISQEELLLRENGWKAAKTADGKVYYYNPTTRETSWTIPAFEKK | soluble |
| MSLTGTSAIENVDSGNEESMIYQQVGDQTKVLTENDKYLVKCINSFNAEQLPIPSHVPFYSTIDGVNKQCSYNDNENLYVWNFINSKWDDSNYCKIPLNTDSSSSVNALPKSVFILPTNYDTDAEMLGLENSNSSNGIVGGVILVENTADATYLVYYEDMRSINHLSTSISKNMAHLLDLKLHSEEKVTLMLNSEPAGLVLATTEGRLMFITIRETNGKPCLTLKQQLIRPKGSGPLAFLSLFSSSNEIISLRNGPIIGKGERIVYVLTRNGRFQVWKLSVASKCVKMMDTNFYDSILDDLVELYPFAQGSLKILDTHPITNQPFSPQVVLTQISSSDETNFILSTIILDEQTNSFTIFSTYRLNTYIMKGNSALAKPKLCVPSSLQSATSKYFDLFIVFDKAVVITQTSSKLDSTYTLKRKWEDIISFNKEIQILAESNDASTVYLLTKGMGIISIIPKKERGETAYEESFVKSHLDQAIYFSSSSSNPVEFNLPGGLHLEQDEVENDLKTASEEILLSSSKYIPPLTDNIEKHLSLRLVYFRNLISFVKDNFAFSISPSKKLDIIENFELLNCFHKFNNFISSSNFELKSFWDRTLEANGNINEIELAVEKIHRFPDLFSTYLNTIIKELPSKSYTFKLTLADLIIETIYDAILEEGEKKLRYEFLSLDPLELNTHLPWFISIDILDSINQLFFDLKFSLEGQEKNANTQLLVIVKTLYYLFNQVRLFFLKENNMNDVSAQDFMKKCDQLYENNHLAWNQTLCELGLNEDSLEISEFYHDFVSLVETLDTLEAVESKALYEEYFARFGEQFAHTLFEYYVKKSKLQDLFYRFPEQQEFLVSFFKKYPQYGRVSWIFSIINYDYASAAATLYDITSGDRASAMTLESAQLYLNIAKLSTLAAHENHANVNLLGALKRIQANLDVVDGGKDLVEKLKRVDGAPSHLQANYKGTEFEKLFDLLVKKVTNGTMLQFVEVVILYSLIDDKECLYHALKLLAIDGDILELELKKFLISLIWRRSILFDIQNAYDTTSEDSTLHFVLKQYLEDELFRANCPLPTVGVLTEKTMFTESLLSSLFSNYELDTKKLQDILEKEYNTVESTAVDIEKRIIETISSLDKANDNSYTVNYHDLTIEYQNEGHHHHHH | soluble |
| MGSDKIHHHHHHMSDRLPPLTALRAFDAAARHMSFAKAADELSVTPAALSFQIKSLEEHLGAPLFRRLNRAVELTEAGAALAPGVDEGFQALSAAWRQARRVLDTTSLTVTAGPALTAKWLAPRLYEFARSHPDIDLRLSAGLKMVDLRRDHVDVAIRFGYSVDDYLVAQAARPEWLTPVMTPELCAKYPTPQSLRDAPLIYDDSIGFLSPSCDWPTWFRAMGLEFTPGHGTHFSHADHAIDAACAGLGVALGRRPMIIKDVQEGRLVAPFKVAIETDAKFHFLCLPSSQDRPQIRAFREWFFSEIEKTAHMWDDFTIIPVKDL | not soluble |
| MSLSGIYERLQSLESLDLKSLDKNRTMLLIVDINKGFAKEGALYSDRIEKLISPISNLANYALNSGIRVKAFTDYHTEDSIELKAYPKHCMKDTDEWELVDELNLEGIEVIKKNSTNGFLEENFILNKEEIDNVIIVGDCTDICIYQLAISLRAEFNRVNKDGEIYVPKKLVDTFDMPMHKANFMNYVFLNSMLDNGVKVIEDIILDEGHHHHHH | soluble |
| MEEDKNTLDLHTEAREEDRVAKAVALFKEGYNCSQSVVTAFADLYGFTREQALHMSASFGGGIGRMRETCGAACGMFLLAGLEKCAIEGKDRESKAANYALVQELAEEFKKRNGALRCADLLGLSGKEPVVSTPEARTERYYAKRPCARMVEEAARIWSEHLEKQKK | not soluble |
| MSSRVLTPDVVGIDALVHDHQTVLAKAEGGVVAVFANNAPAFYAVTPARLAELLALEEKLARPGSDVALDDQLYQEPQAAPVAVPMGKFAMYPDWQPDADFIRLAALWGVALREPVTTEELASFIAYWQAEGKVFHHVQWQQKLARSLQIGRASNGGLPKRDVNTVSEPDSQIPPGFRG | soluble |
| AIAPDESAQVRFLIVGRTGWIANMVAELLEQRGERYAFASFRLEQREACELELDALRPQRVLNCAGVTGRPNVDWCEDHRRETVRSNVLGVLNLADCCASRGIHLTNFATGCLYHYDDGEHRPTAEGGRPFTEDDPPNFFGSYYSRTKAMVEELLRSAFDNVLILRLRMPVSDDLSPRSFVAKIARYEKVVNIPNSMTVLTELLPVALDMSERGLTGVYNFTNPGSISHNEVLELYRKYIDPKFQWKNFTLEEQAKILKAGRSNCELDVRKLLRDNPGAQIREVHAAMEEVFRRMQAKGVKPLAAP | soluble |
| MGRMSEKLGQDIKQSIFKVPPLIQKSDIDPEHCRVSAQLDDNVDDNIPLRVMLLLMDEVFDLKDRNQWLRRNIKNLLQQLIKATYGDTINRKIVDHVDNMTSPEQVSDYVKRFRDSYWPNGILAETPPRRDKNLRMRTRVAAKTTLLGIMPDELKHIIGADTTRKGILRVFEMFQHQPLNRRLVYVFLEGFLETLFPQYKFPELFEKLHSRSPRVLKYSHKLRSLQKR | not soluble |
| SLSSPGDIPAEDFADHVRKNERDSNCGFADEYQQLSLVGHSQSQMVASASENNAKNRYRNVLPYDWSRVPLKPIHEEPGSDYINASFMPGLWSPQEFIATQGPLPQTVGDFWRLVWEQQSHTLVMLTNCMEAGRVKCEHYWPLDSQPCTHGHLRVTLVGEEVMENWTVRELLLLQVEEQKTLSVRQFHYQAWPDHGVPSSPDTLLAFWRMLRQWLDQTMEGGPPIVHCSAGVGRTGTLIALDVLLRQLQSEGLLGPFSFVRKMRESRPLMVQTEAQYVFLHQCICGSSNSQPRPQPRRKSRMRMSKTSSTRTWPPSRPTSWRSK | soluble |
| GPGSMRTQTFPQQPRAPGMLPHLSNGAAAPAAPQVPAVQEHTDVVHDTQFDYYGLQLATASSDRTIGIHVARAGAPLNRVATLTGHEGPVWMVSWAHPRFGNLLASASYDQKAIIWKEIRQGAPKWTPVHVIDIHHGSVNAVQWAPEEYGPVVATASSDGTVAITAYRDGCWQPSVKLSNNSNQIAHAMGATSVTFAPFKSELADHVVVASGGCDGHVRLWVSASSPERGLGFELHQVIEAHADWVRDVAFCPTSPASRFVILASCGQDKTVVMYRKPWDQLCAETSEGVSQATEWERSVIEFAEPVWRLSWAPSGEMLVVTNAKSEVFVLREGVDFTEPWIKLPLKDFQQ | not soluble |
| MKQVTVLLIGLGRMGSRFFDKFVEIGEERVKIVGVCELNEQNPKVLEAKKRNIPLYPSYKEALTDLHESVDIILDTSNISEVKRDIRELLSRQNNQHSVLLPMVADYLLWYMLPNAEEIPQDHTDIGY | not soluble |
